Source: article PMC3626704 (BMC Biochemistry, 2013)

B1: D5 bivalent scFv (biv-scFv) displayed on M13 phage (scFv, V domains shown)
VH: QVQLVQSGAEVRKPGASVKVSCKASGDTFSSYAISWVRQAPGQGLEWMGGIIPIFGTANYAQAFQGRVTITANESTSTAYMELSSLRSEDTAIYYCARDNPTLLGSDYWGAGTLVTVSS
VL: DIQMTQSPSTLSASIGDRVTITCRASEGIYHWLAWYQQKPGKAPKLLIYKASSLASGAPSRFSGSGSGTDFTLTISSLQPDDFATYYCQQYSNYPLTFGGGTKLEIK
B2: 25B8 bivalent scFv on phage (scFv, V domains shown)
VH: QVQLVQSGAEVRKPGASVKVSCKASGDTFSSYAISWVRQAPGQGLEWMGGIIPIFGTANYAQAFQGRVTITANESTSTAYMELSSLRSEDTAIYYCARDNPTLLGSDYWGAGTLVTVSS
VL: DIQMTQSPSTLSASIGDRVTITCRASENINRNLAWYQQKPGKAPKLLISRASRLASGAPSRFSGSGSGTDFTLTISSLQPDDFATYYCQQRYNYPYTFGGGTKLEIK
B3: 16F6 bivalent scFv on phage (scFv, V domains shown)
VH: QVQLVQSGAEVRKPGASVKVSCKASGDTFSSYAISWVRQAPGQGLEWMGGIIPIFGTANYAQAFQGRVTITANESTSTAYMELSSLRSEDTAIYYCARDNPTLLGSDYWGAGTLVTVSS
VL: DIQMTQSPSTLSASIGDRVTITCRASESISSILAWYQQKPGKAPKLLISNASRLASGAPSRFSGSGSGTDFTLTISSLQPDDFATYYCQQRSNYPFTFGGGTKLEIK
B4: 25C4 bivalent scFv on phage (scFv, V domains shown)
VH: QVQLVQSGAEVRKPGASVKVSCKASGDTFSSYAISWVRQAPGQGLEWMGGIIPIFGTANYAQAFQGRVTITANESTSTAYMELSSLRSEDTAIYYCARDNPTLLGSDYWGAGTLVTVSS
VL: DIQMTQSPSTLSASIGDRVTITCRASESILGSLAWYQQKPGKAPKLLIYRASHLASGAPSRFSGSGSGTDFTLTISSLQPDDFATYYCQQYSNYPLTFGGGTKLEIK
B5: 16G6 bivalent scFv on phage (scFv, V domains shown)
VH: QVQLVQSGAEVRKPGASVKVSCKASGDTFSSYAISWVRQAPGQGLEWMGGIIPIFGTANYAQAFQGRVTITANESTSTAYMELSSLRSEDTAIYYCARDNPTLLGSDYWGAGTLVTVSS
VL: DIQMTQSPSTLSASIGDRVTITCRASEGIRRSLAWYQQKPGKAPKLLISNASHLASGAPSRFSGSGSGTDFTLTISSLQPDDFATYYCQQYYNYPRTFGGGTKLEIK
B6: 25E1 bivalent scFv on phage (scFv, V domains shown)
VH: QVQLVQSGAEVRKPGASVKVSCKASGDTFSSYAISWVRQAPGQGLEWMGGIIPIFGTANYAQAFQGRVTITANESTSTAYMELSSLRSEDTAIYYCARDNPTLLGSDYWGAGTLVTVSS
VL: DIQMTQSPSTLSASIGDRVTITCRASEDIGGSLAWYQQKPGKAPKLLISHAYSLASGAPSRFSGSGSGTDFTLTISSLQPDDFATYYCQQHATYPHTFGGGTKLEIK
B7: 25C5 bivalent scFv on phage (scFv, V domains shown)
VH: QVQLVQSGAEVRKPGASVKVSCKASGDTFSSYAISWVRQAPGQGLEWMGGIIPIFGTANYAQAFQGRVTITANESTSTAYMELSSLRSEDTAIYYCARDNPTLLGSDYWGAGTLVTVSS
VL: DIQMTQSPSTLSASIGDRVTITCRASEDIHDYLAWYQQKPGKAPKLLISRASRLASGAPSRFSGSGSGTDFTLTISSLQPDDFATYYCQQNDSYPYTFGGGTKLEIK
B8: 16E3 bivalent scFv on phage (scFv, V domains shown)
VH: QVQLVQSGAEVRKPGASVKVSCKASGDTFSSYAISWVRQAPGQGLEWMGGIIPIFGTANYAQAFQGRVTITANESTSTAYMELSSLRSEDTAIYYCARDNPTLLGSDYWGAGTLVTVSS
VL: DIQMTQSPSTLSASIGDRVTITCRASEGIRYGLAWYQQKPGKAPKLLISRASRLASGAPSRFSGSGSGTDFTLTISSLQPDDFATYYCQQHYAYPHTFGGGTKLEIK
B9: 16D10 bivalent scFv on phage (scFv, V domains shown)
VH: QVQLVQSGAEVRKPGASVKVSCKASGDTFSSYAISWVRQAPGQGLEWMGGIIPIFGTANYAQAFQGRVTITANESTSTAYMELSSLRSEDTAIYYCARDNPTLLGSDYWGAGTLVTVSS
VL: DIQMTQSPSTLSASIGDRVTITCRASENIRGSLAWYQQKPGKAPKLLIYRASRLASGAPSRFSGSGSGTDFTLTISSLQPDDFATYYCQQHSDYPHTFGGGTKLEIK
B10: 25A6 bivalent scFv on phage (scFv, V domains shown)
VH: QVQLVQSGAEVRKPGASVKVSCKASGDTFSSYAISWVRQAPGQGLEWMGGIIPIFGTANYAQAFQGRVTITANESTSTAYMELSSLRSEDTAIYYCARDNPTLLGSDYWGAGTLVTVSS
VL: DIQMTQSPSTLSASIGDRVTITCRASEGIYDGLAWYQQKPGKAPKLLISRAYYLASGAPSRFSGSGSGTDFTLTISSLQPDDFATYYCQQRANYPHTFGGGTKLEIK
B11: 25A5 bivalent scFv on phage (scFv, V domains shown)
VH: QVQLVQSGAEVRKPGASVKVSCKASGDTFSSYAISWVRQAPGQGLEWMGGIIPIFGTANYAQAFQGRVTITANESTSTAYMELSSLRSEDTAIYYCARDNPTLLGSDYWGAGTLVTVSS
VL: DIQMTQSPSTLSASIGDRVTITCRASESIRSHLAWYQQKPGKAPKLLISRASRLASGAPSRFSGSGSGTDFTLTISSLQPDDFATYYCQQSSDYPHTFGGGTKLEIK
B12: 16E12 bivalent scFv on phage (scFv, V domains shown)
VH: QVQLVQSGAEVRKPGASVKVSCKASGDTFSSYAISWVRQAPGQGLEWMGGIIPIFGTANYAQAFQGRVTITANESTSTAYMELSSLRSEDTAIYYCARDNPTLLGSDYWGAGTLVTVSS
VL: DIQMTQSPSTLSASIGDRVTITCRASEGIRRSLAWYQQKPGKAPKLLISNASHLASGAPSRFSGSGSGTDFTLTISSLQPDDFATYYCQQYYNYPRTFGGGTKLEIK
B13: 16B7 bivalent scFv on phage (scFv, V domains shown)
VH: QVQLVQSGAEVRKPGASVKVSCKASGDTFSSYAISWVRQAPGQGLEWMGGIIPIFGTANYAQAFQGRVTITANESTSTAYMELSSLRSEDTAIYYCARDNPTLLGSDYWGAGTLVTVSS
VL: DIQMTQSPSTLSASIGDRVTITCRASENILRLLAWYQQKPGKAPKLLIYYASSLASGAPSRFSGSGSGTDFTLTISSLQPDDFATYYCQQRADYPYTFGGGTKLEIK
B14: 16F5 bivalent scFv on phage (scFv, V domains shown)
VH: QVQLVQSGAEVRKPGASVKVSCKASGDTFSSYAISWVRQAPGQGLEWMGGIIPIFGTANYAQAFQGRVTITANESTSTAYMELSSLRSEDTAIYYCARDNPTLLGSDYWGAGTLVTVSS
VL: DIQMTQSPSTLSASIGDRVTITCRASENINDHLAWYQQKPGKAPKLLISRAYRLASGAPSRFSGSGSGTDFTLTISSLQPDDFATYYCQQYADTPFTFGGGTKLEIK
B15: 25B4 bivalent scFv on phage (scFv, V domains shown)
VH: QVQLVQSGAEVRKPGASVKVSCKASGDTFSSYAISWVRQAPGQGLEWMGGIIPIFGTANYAQAFQGRVTITANESTSTAYMELSSLRSEDTAIYYCARDNPTLLGSDYWGAGTLVTVSS
VL: DIQMTQSPSTLSASIGDRVTITCRASEGIRNGLAWYQQKPGKAPKLLISRASHLASGAPSRFSGSGSGTDFTLTISSLQPDDFATYYCQQYYAYPHTFGGGTKLEIK
B16: 16E8 bivalent scFv on phage (scFv, V domains shown)
VH: QVQLVQSGAEVRKPGASVKVSCKASGDTFSSYAISWVRQAPGQGLEWMGGIIPIFGTANYAQAFQGRVTITANESTSTAYMELSSLRSEDTAIYYCARDNPTLLGSDYWGAGTLVTVSS
VL: DIQMTQSPSTLSASIGDRVTITCRASESIYGSLAWYQQKPGKAPKLLISHASHLASGAPSRFSGSGSGTDFTLTISSLQPDDFATYYCQQNDTYPHTFGGGTKLEIK
B17: 2H10 bivalent scFv on phage (scFv, V domains shown)
VH: QVQLVQSGAEVRKPGASVKVSCKASGDTFSSYAISWVRQAPGQGLEWMGGIIPIFGTANYAQAFQGRVTITANESTSTAYMELSSLRSEDTAIYYCARDNPTLLGSDYWGAGTLVTVSS
VL: DIQMTQSPSTLSASIGDRVTITCRASEDIYRSLAWYQQKPGKAPKLLISRASRLASGAPSRFSGSGSGTDFTLTISSLQPDDFATYYCQQYSNYPLTFGGGTKLEIK
B18: 25F12 bivalent scFv on phage (scFv, V domains shown)
VH: QVQLVQSGAEVRKPGASVKVSCKASGDTFSSYAISWVRQAPGQGLEWMGGIIPIFGTANYAQAFQGRVTITANESTSTAYMELSSLRSEDTAIYYCARDNPTLLGSDYWGAGTLVTVSS
VL: DIQMTQSPSTLSASIGDRVTITCRASEGIIGHLAWYQQKPGKAPKLLIYNASRLASGAPSRFSGSGSGTDFTLTISSLQPDDFATYYCQQRDDYPLTFGGGTKLEIK

Molecular target: T1, 6-Helix-Fd (HIV-1 gp41 (HXB2-like, printed sequence), stabilised)
T1 construct: also called post-fusion six-helix bundle mimic
T1 chain: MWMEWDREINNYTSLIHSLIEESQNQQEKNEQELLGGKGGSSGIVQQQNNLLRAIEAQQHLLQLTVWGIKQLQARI
Experiment: ELISA; competitive phage ELISA, on-phage bivalent scFv: binding to immobilised 5-Helix inhibited by free 5-Helix or free 6-Helix-Fd (concentrations for the trimer); apparent
Settings: one partner purified

| Binder | IC50 |
| --- | --- |
| B1 | 11 nM |
| B2 | ~100 nM |

molecular target: T2, 5-Helix (HIV-1 group M subtype B, HXB2 (gp41 …, stabilised)); experiment: as above; settings: one partner purified
T2 construct: also called designed protein based on HIV-1 gp41

| Binder | IC50 |
| --- | --- |
| B1 | 0.1 nM |
| B2 | 3.1 nM |

molecular target: T2, 5-Helix; experiment: ELISA; settings: one partner purified

| Binder | F_competitive (signal with 40 nM free 5-Helix / signal without) | phage ELISA signal OD450 |
| --- | --- | --- |
| B3 | 0.8 fraction | 3 OD450 |
| B4 | 0.1 fraction | 2.5 OD450 |
| B5 | 0.3 fraction | 2.3 OD450 |
| B6 | 0.1 fraction | 3 OD450 |
| B7 | 0.5 fraction | 0.7 OD450 |
| B8 | 0.7 fraction | 3 OD450 |
| B9 | 0.7 fraction | 3 OD450 |
| B10 | 0.1 fraction | 3.1 OD450 |
| B11 | 0.1 fraction | 3.5 OD450 |
| B12 | 0.1 fraction | 3.1 OD450 |
| B13 | 0.6 fraction | 3 OD450 |
| B14 | 0.2 fraction | 3 OD450 |
| B15 | 0.1 fraction | 2.9 OD450 |
| B2 | 0.2 fraction | 2.9 OD450 |
| B16 | 0.4 fraction | 3 OD450 |
| B17 | 0.1 fraction | 1.9 OD450 |
| B18 | 0.2 fraction | 2.7 OD450 |
